In experiment [1] the target is Yin Yang 1 (YY1), endogenous (human (endogenous in MDA-MB-231)) (UniProt P25490).
Experiment [2] addresses enhancer of zeste homolog 2 (EZH2), endogenous (human (endogenous in MDA-MB-231)) (UniProt Q15910).

Chain of Yin Yang 1 (YY1), endogenous (human (endogenous in MDA-MB-231)) (P25490 whole entry): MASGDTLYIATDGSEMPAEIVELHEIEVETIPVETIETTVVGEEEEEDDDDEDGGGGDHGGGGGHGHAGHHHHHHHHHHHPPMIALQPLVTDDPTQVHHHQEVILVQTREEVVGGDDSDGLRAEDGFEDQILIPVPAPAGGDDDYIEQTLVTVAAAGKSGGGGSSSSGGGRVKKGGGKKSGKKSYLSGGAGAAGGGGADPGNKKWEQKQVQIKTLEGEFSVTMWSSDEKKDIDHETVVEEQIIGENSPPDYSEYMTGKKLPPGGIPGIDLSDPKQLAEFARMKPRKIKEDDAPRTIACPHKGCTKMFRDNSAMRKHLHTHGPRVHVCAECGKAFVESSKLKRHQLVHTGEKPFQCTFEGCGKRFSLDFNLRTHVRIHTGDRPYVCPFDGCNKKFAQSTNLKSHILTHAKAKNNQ
Chain of synthetic FITC-TAT-3×Glycine-OPB peptide (P25490 whole entry): as above
Chain of enhancer of zeste homolog 2 (EZH2), endogenous (human (endogenous in MDA-MB-231)) (Q15910 whole entry): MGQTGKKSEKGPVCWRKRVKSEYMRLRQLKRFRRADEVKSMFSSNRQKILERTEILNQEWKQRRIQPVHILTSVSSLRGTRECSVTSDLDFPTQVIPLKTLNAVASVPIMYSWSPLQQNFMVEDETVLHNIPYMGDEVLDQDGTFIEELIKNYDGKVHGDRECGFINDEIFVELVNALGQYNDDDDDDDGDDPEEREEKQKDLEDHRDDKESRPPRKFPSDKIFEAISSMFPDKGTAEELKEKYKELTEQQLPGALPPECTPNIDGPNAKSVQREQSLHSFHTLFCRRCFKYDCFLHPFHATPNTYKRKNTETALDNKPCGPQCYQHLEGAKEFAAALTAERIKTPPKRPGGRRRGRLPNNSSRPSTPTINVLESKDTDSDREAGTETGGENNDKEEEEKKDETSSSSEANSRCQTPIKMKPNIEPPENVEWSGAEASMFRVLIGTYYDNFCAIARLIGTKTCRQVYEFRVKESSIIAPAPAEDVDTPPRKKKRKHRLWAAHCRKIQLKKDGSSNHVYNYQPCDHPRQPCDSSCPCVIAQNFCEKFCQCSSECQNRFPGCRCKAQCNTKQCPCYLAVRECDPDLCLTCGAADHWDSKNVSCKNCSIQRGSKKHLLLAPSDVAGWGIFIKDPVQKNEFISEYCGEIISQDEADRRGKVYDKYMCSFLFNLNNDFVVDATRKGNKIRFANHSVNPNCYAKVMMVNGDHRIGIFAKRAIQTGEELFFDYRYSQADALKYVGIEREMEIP

Regarding “synthetic FITC-TAT-3×Glycine-YPB peptide (from UniProt Q15910-2 493-519)”, the IC50 of cell viability (WST-1, 48 h) in MCF-7, MDA-MB-231 and MDA-MB-453 breast cancer cells; the peptide blocks YY1-EZH2 (m1 with m2) in experiment [1] turned out to be 20 µM. As for “synthetic FITC-TAT-3×Glycine-OPB peptide (from UniProt P25490 201-226)”, the IC50 of cell viability (WST-1, 48 h) in MCF-7, MDA-MB-231 and MDA-MB-453 breast cancer cells; the peptide blocks YY1-EZH2 (m1 with m2) in experiment [2] came to 20 µM.

For the origin of these results see publication PMC8156467, “Disruption of YY1-EZH2 Interaction Using Synthetic Peptides Inhibits Breast Cancer Development” (Cancers, 2021).
